In US20260007756A1, “COMPOUND AND USE THEREOF” (COHERENT BIOPHARMA (SUZHOU) LIMITED, priority 2022, published 2026):
Converted amounts (≈) assume the structure as drawn. Like-named read-outs stand apart in the source and are kept apart here. Numbered stars: 1 amine (or outer) side, 2 acyl side, 3 side chain; on linkers, the order of the positions; unused ones are H or OH. Square brackets hold non-standard residues; d marks the D form. Side chains are listed from the residue outwards. Peptide text beside a SMILES is read from it. * marks the point of attachment. EuK = O=C(O)CC[C@H](NC(=O)N[C@@H](CCCCN*)C(=O)O)C(=O)O; Pteroyl = Nc1nc2ncc(CNc3ccc(C(=O)*)cc3)nc2c(=O)[nH]1; γGlu = O=C(O)[C@H](CCC(=O)[*:2])N[*:1]; X1 = O=C(Cc1ccc(CN[*:1])cc1)[*:2]; Pra = C#CC[C@H](N)C(=O)O; CO = O=C([*:1])[*:2]

What was measured:
[1] = test system: 22RV1; assay type: cell-based, human; settings: 22RV1, 72 h, CellTiter-Glo
Text: (§1) Negative and blank controls were set.

[2] = test system: MDA-MB-231; assay type: cell-based, human; settings: MDA-MB-231, 72 h, CellTiter-Glo
Text: as §1

[3] = Solubility study in PBS; assay type: physicochemical; settings: aqueous buffer, thermodynamic from solid; PBS (pH 7.2 to 7.4); read-out: Solubility, concentration
Protocol: The mixture was vortexed for 2 min until the solid was dissolved. The solubility was calculated as: C=m/V, C: concentration, m: sample weight, V: PBS total volume.

[4] = test system: plasmin; settings: PBS pH 7.4, 37° C.
Protocol: • 1) The compounds were formulated into 500 μg/mL stock solutions with PBS (pH 7.4); • 2) 60 μL of 500 μg/mL compound stock solution was added to 420 μL PBS (pH 7.4), before 60 μL of 0.2 U/mL plasmin (or 60 μL of 0.5 U/mL sulfatase) was added, and the mixture was well mixed by gentle shaking; • 3) The cleavage reaction system in step 2) was transferred to a thermostatic incubator at 37° C. for 0 h, 1 h, 2 h, 4 h, or 24 h of incubation. Samples were taken and loaded at various time points for LC-MS analysis.

[5] = Plasma stability study 2; assay type: in vitro ADME; settings: mouse plasma, 37° C.; for remaining at 0.5 h, 100 μg/mL / remaining at 1 h, 100 μg/mL / remaining at 2 h, 100 μg/mL / remaining at 4 h, 100 μg/mL / remaining at 6 h, 100 μg/mL: read-out: Residual rate of principal component
Protocol: • 1) The conjugate compounds were prepared into 1 mg/mL stock solutions with 0.1% TFA-acetonitrile water (1:1); • 2) 10 μL of 1 mg/mL compound stock solution was added into 90 μL of fresh plasma, and the mixture was well mixed by gentle shaking, and transferred to a thermostatic incubator at 37° C. for 0 h, 0.5 h, 1 h, 2 h, 4 h, 6 h, or 24 h of incubation; • 3) at the time points, samples were taken out and 300 μL of methanol solution (containing 10 ng/ml of terfenadine) was added for protein precipitation; • 4) the mixture was centrifuged (13 min, 4° C., 12000 rpm) and the supernatant was collected, and preserved in a −80° C. refrigerator; after collection, the samples were loaded for LC-MS analysis.

[6] = test system: HT-29 cell subcutaneous xenograft tumor; assay: Pharmacodynamic assessment, HT-29 xenograft model; assay type: in vivo, BALB/c nude mouse
Text: Objective: Pre-clinical assessment of the efficacy of CR202 series of compounds for treating BALB/c nude mouse model with HT-29 cell subcutaneous xenograft tumor.
Procedures: HT-29 cells were subcutaneously grafted at the right back of the mice, and the mice were randomized when the mean tumor volume reached 100-150 mm^3. After the administration, the routine monitoring included the effect on tumor growth and the effect of treatment on the normal behavior of the animals, specifically the activity, food and water intake, weight gain or loss, the eyes, the hair, and other abnormal conditions. Clinical symptoms observed during the study were recorded in the raw data. After the administration was started, the body weight and tumor size of the mice were measured periodically. The tumor volume was calculated using the following formula: V=1/2×(a×b^2), where a and b denote the long diameter and short diameter of the tumor, respectively.

[7] = 10.9 mg/kg i.v BIW×3, day 25 after grouping
[8] = 22.7 mg/kg i.v BIW×3, day 25 after grouping

CC[C@@H]1C(=O)N(C)c2cnc(Nc3ccc(-c4cn([C@H]5CC[C@@H](N(CCOCCC#Cc6cccc7c6CN(C6CCC(=O)NC6=O)C7=O)C(=O)OC[C@@H](C)SSC[C@H](NC(=O)[C@H](CCCCN)NC(=O)[C@H](CC(=O)O)NC(=O)[C@H](CC(=O)O)NC(=O)Cc6ccc(CNC(=O)NCCCC[C@H](NC(=O)N[C@@H](CCC(=O)O)C(=O)O)C(=O)O)cc6)C(=O)N[C@@H](CCCCNC(=O)CC[C@H](NC(=O)c6ccc(NCc7cnc8[nH]c(N)nc(=O)c8n7)cc6)C(=O)O)C(N)=O)CC5)nn4)cc3OC)nc2N1C1CCCC1 (stereo partly drawn) [CR202HV]
IC50 [1]: 155 nM | IC50 [2]: 14.2 nM

CC[C@@H]1C(=O)N(C)c2cnc(Nc3ccc(-c4cn([C@H]5CC[C@@H](N(CCOCCC#Cc6cccc7c6CN(C6CCC(=O)NC6=O)C7=O)C(=O)OCc6ccc(NC(=O)[C@H](CCCNC(N)=O)NC(=O)[C@@H](NC(=O)OCCOCCNS(=O)(=O)NC(=O)OCCn7cc(C[C@H](NC(=O)[C@H](CCCCN)NC(=O)[C@H](CC(=O)O)NC(=O)[C@H](CC(=O)O)NC(=O)Cc8ccc(CNC(=O)NCCCC[C@H](NC(=O)N[C@@H](CCC(=O)O)C(=O)O)C(=O)O)cc8)C(=O)N[C@@H](CCCCNC(=O)CC[C@H](NC(=O)c8ccc(NCc9cnc%10[nH]c(N)nc(=O)c%10n9)cc8)C(=O)O)C(N)=O)nn7)C(C)C)cc6)CC5)nn4)cc3OC)nc2N1C1CCCC1 (stereo partly drawn) [CR202GM]
IC50 [1]: 287 nM | IC50 [2]: 512 nM

C#CC[C@H](NC(=O)[C@H](CCCCN)NC(=O)[C@H](CC(=O)O)NC(=O)[C@H](CC(=O)O)NC(=O)Cc1ccc(CNC(=O)NCCCC[C@H](NC(=O)N[C@@H](CCC(=O)O)C(=O)O)C(=O)O)cc1)C(=O)N[C@@H](CCCCNC(=O)CC[C@H](NC(=O)c1ccc(NCc2cnc3[nH]c(N)nc(=O)c3n2)cc1)C(=O)O)C(N)=O [CR202W4] ({EuK-CO}-[X1]DDK[Pra]K([γGlu-Pteroyl])-NH2)
solubility [3]: 2800 µg/mL (≈ 1850 µM)

CC[C@@H]1C(=O)N(C)c2cnc(Nc3ccc(-c4cn([C@H]5CC[C@@H](N(CCOCCC#Cc6cccc7c6CN(C6CCC(=O)NC6=O)C7=O)C(=O)OCc6ccc(NC(=O)[C@H](CCCCN)NC(=O)[C@H](CC(C)C)NC(=O)[C@@H](NC(=O)COCCOCCn7cc(C[C@H](NC(=O)[C@H](CCCCN)NC(=O)[C@H](CC(=O)O)NC(=O)[C@H](CC(=O)O)NC(=O)Cc8ccc(CNC(=O)NCCCC[C@H](NC(=O)N[C@@H](CCC(=O)O)C(=O)O)C(=O)O)cc8)C(=O)N[C@@H](CCCCNC(=O)CC[C@H](NC(=O)c8ccc(NCc9cnc%10[nH]c(N)nc(=O)c%10n9)cc8)C(=O)O)C(N)=O)nn7)C(C)C)cc6)CC5)nn4)cc3OC)nc2N1C1CCCC1 (stereo partly drawn) [CR202V8]
solubility [3]: 7500 µg/mL (≈ 2450 µM) | IC50 [1]: 20.5 nM | IC50 [2]: 24.1 nM | CR20274 release rate of compounds after cleavage ([4]; 0 h): 22% | Principal component residue of compounds after cleavage ([4]; 0 h): 8% | CR20274 release rate of compounds after cleavage ([4]; 1 h): 100% | Principal component residue of compounds after cleavage ([4]; 1 h): 1% | CR20274 release rate of compounds after cleavage ([4]; 2 h): 100% | Principal component residue of compounds after cleavage ([4]; 2 h): 1% | CR20274 release rate of compounds after cleavage ([4]; 4 h): 100% | Principal component residue of compounds after cleavage ([4]; 4 h): 0% | CR20274 release rate of compounds after cleavage ([4]; 24 h): 100% | Principal component residue of compounds after cleavage ([4]; 24 h): 0% | CR20274 release rate (actual release/theoretical release) ([5]; 0 h): 0.06% | Residual rate of principal component ([5]; 0 h): 78.37% | CR20274 release rate (actual release/theoretical release) ([5]; 0.5 h): 1.94% | remaining at 0.5 h, 100 μg/mL ([5]; 0.5 h): 50.9% | CR20274 release rate (actual release/theoretical release) ([5]; 1 h): 5.56% | remaining at 1 h, 100 μg/mL ([5]; 1 h): 59.9% | CR20274 release rate (actual release/theoretical release) ([5]; 2 h): 7.07% | remaining at 2 h, 100 μg/mL ([5]; 2 h): 49.5% | CR20274 release rate (actual release/theoretical release) ([5]; 4 h): 14.20% | remaining at 4 h, 100 μg/mL ([5]; 4 h): 41.2% | CR20274 release rate (actual release/theoretical release) ([5]; 6 h): 14.58% | remaining at 6 h, 100 μg/mL ([5]; 6 h): 32.5% | CR20274 release rate (actual release/theoretical release) ([5]; 24 h): 105.58% | Residual rate of principal component ([5]; 24 h): −2.40%

CC[C@@H]1C(=O)N(C)c2cnc(Nc3ccc(-c4cn([C@H]5CC[C@@H](N(CCOCCC#Cc6cccc7c6CN(C6CCC(=O)NC6=O)C7=O)C(=O)NCCNC(=O)OCc6ccc(NC(=O)[C@H](CCCNC(N)=O)NC(=O)[C@@H](NC(=O)COCCOCCn7cc(C[C@H](NC(=O)[C@H](CCCCN)NC(=O)[C@H](CC(=O)O)NC(=O)[C@H](CC(=O)O)NC(=O)Cc8ccc(CNC(=O)NCCCC[C@H](NC(=O)N[C@@H](CCC(=O)O)C(=O)O)C(=O)O)cc8)C(=O)N[C@@H](CCCCNC(=O)CC[C@H](NC(=O)c8ccc(NCc9cnc%10[nH]c(N)nc(=O)c%10n9)cc8)C(=O)O)C(N)=O)nn7)C(C)C)cc6)CC5)nn4)cc3OC)nc2N1C1CCCC1 (stereo partly drawn) [CR202HJ]
IC50 [1]: 1220 nM | IC50 [2]: 3650 nM

CC[C@@H]1C(=O)N(C)c2cnc(Nc3ccc(-c4cn([C@H]5CC[C@@H](N(CCOCCC#Cc6cccc7c6CN(C6CCC(=O)NC6=O)C7=O)C(=O)CNC(=O)[C@@H]6CCCN6C(=O)[C@H](CCCNC(N)=O)NC(=O)[C@@H](NC(=O)COCCOCCn6cc(C[C@H](NC(=O)[C@H](CCCCN)NC(=O)[C@H](CC(=O)O)NC(=O)[C@H](CC(=O)O)NC(=O)Cc7ccc(CNC(=O)NCCCC[C@H](NC(=O)N[C@@H](CCC(=O)O)C(=O)O)C(=O)O)cc7)C(=O)N[C@@H](CCCCNC(=O)CC[C@H](NC(=O)c7ccc(NCc8cnc9[nH]c(N)nc(=O)c9n8)cc7)C(=O)O)C(N)=O)nn6)C(C)C)CC5)nn4)cc3OC)nc2N1C1CCCC1 (stereo partly drawn) [CR202GQ]
IC50 [1]: 3160 nM | IC50 [2]: 4480 nM

CC[C@@H]1C(=O)N(C)c2cnc(Nc3ccc(-c4cn([C@H]5CC[C@@H](N(CCOCCC#Cc6cccc7c6CN(C6CCC(=O)NC6=O)C7=O)C(=O)OCc6ccc(NC(=O)[C@H](CC(N)=O)NC(=O)[C@H](CC(N)=O)NC(=O)CNC(=O)COCCOCCn7cc(C[C@H](NC(=O)[C@H](CCCCN)NC(=O)[C@H](CC(=O)O)NC(=O)[C@H](CC(=O)O)NC(=O)Cc8ccc(CNC(=O)NCCCC[C@H](NC(=O)N[C@@H](CCC(=O)O)C(=O)O)C(=O)O)cc8)C(=O)N[C@@H](CCCCNC(=O)CC[C@H](NC(=O)c8ccc(NCc9cnc%10[nH]c(N)nc(=O)c%10n9)cc8)C(=O)O)C(N)=O)nn7)cc6)CC5)nn4)cc3OC)nc2N1C1CCCC1 (stereo partly drawn) [CR202V9]
solubility [3]: 15800 µg/mL (≈ 5260 µM) | CR20274 release rate (actual release/theoretical release) ([5]; 0 h): 0.11% | Residual rate of principal component ([5]; 0 h): 99.22% | CR20274 release rate (actual release/theoretical release) ([5]; 0.5 h): 0.17% | remaining at 0.5 h, 100 μg/mL ([5]; 0.5 h): 99.8% | CR20274 release rate (actual release/theoretical release) ([5]; 1 h): 0.22% | remaining at 1 h, 100 μg/mL ([5]; 1 h): 98.4% | CR20274 release rate (actual release/theoretical release) ([5]; 2 h): 0.21% | remaining at 2 h, 100 μg/mL ([5]; 2 h): 89.6% | CR20274 release rate (actual release/theoretical release) ([5]; 4 h): 0.25% | remaining at 4 h, 100 μg/mL ([5]; 4 h): 67.1% | CR20274 release rate (actual release/theoretical release) ([5]; 6 h): 0.30% | remaining at 6 h, 100 μg/mL ([5]; 6 h): 66.3% | CR20274 release rate (actual release/theoretical release) ([5]; 24 h): 1.46% | Residual rate of principal component ([5]; 24 h): 0.62%

CCOCCNS(=O)(=O)NC(=O)OCCOCCNC(=O)[C@H](Cc1cn(CCOC(=O)NS(=O)(=O)NCCOCCOC(=O)N[C@H](C(=O)N[C@@H](CCCNC(N)=O)C(=O)Nc2ccc(COC(=O)N(CCOCCC#Cc3cccc4c3CN(C3CCC(=O)NC3=O)C4=O)[C@H]3CC[C@@H](n4cc(-c5ccc(Nc6ncc7c(n6)N(C)[C@H](CC)C(=O)N7C)cc5)nn4)CC3)cc2)C(C)C)nn1)NC(=O)CC[C@H](NC(=O)c1ccc(NCc2cnc3nc(N)nc(O)c3n2)cc1)C(=O)O (stereo partly drawn) [CR202HR]
Mean tumor volume [6, 7]: 946.05 mm^3 | TGI [6, 7]: 54.51% | Mean tumor volume [6, 8]: 614.73 mm^3 | TGI [6, 8]: 70.44%

CC[C@@H]1C(=O)N(C)c2cnc(Nc3ccc(-c4cn([C@H]5CC[C@@H](N(CCOCCC#Cc6cccc7c6CN(C6CCC(=O)NC6=O)C7=O)C(=O)OCc6ccc(NC(=O)[C@H](CCCNC(N)=O)NC(=O)[C@@H](NC(=O)COCCOCCn7cc(C[C@H](NC(=O)[C@H](CCCCN)NC(=O)[C@H](CC(=O)O)NC(=O)[C@H](CC(=O)O)NC(=O)Cc8ccc(CNC(=O)NCCCC[C@H](NC(=O)N[C@@H](CCC(=O)O)C(=O)O)C(=O)O)cc8)C(=O)N[C@@H](CCCCNC(=O)CC[C@H](NC(=O)c8ccc(NCc9cnc%10[nH]c(N)nc(=O)c%10n9)cc8)C(=O)O)C(N)=O)nn7)C(C)C)c(OC)c6)CC5)nn4)cc3OC)nc2N1C1CCCC1 (stereo partly drawn) [CR202FU]
IC50 [1]: 469 nM | IC50 [2]: 792 nM
